Data taken from the DeepSol protein solubility set.

Test: soluble on expression in E. coli; label from the status in PepcDB or PDB records

Sequence: MAKPIPVKVVVLTTFEIGAVTGDRPGEFQPWVEGLPLTETIAVPGLRHPARYSPKDGVLGVMTDMRARARESVAALLLDKRFDFSKTYWLVAGIAGVDPKAASIGSAAWARYVVDADPIYEVDDREIPADWPYGLYALETERPNVKGSAEGSSGMVWALNWRLVDWAYGLTAKVEIPDHPGLAALRAPYVGDPNAQRPPFVLKGEALGATRFWHGAKRTQWAQDWVKLWTDGAGVFVMTDCEDQGILDVLDLYAKAGRVDFQRVMVLRTASNYSRPPLGAPAFPRAFHDEGAVSAFDSAYRVGSVVVRELTARWDRYEANTPDMTAIGGTAKLEHHHHHH
- soluble on expression in E. coli: not soluble

Sequence: MGSDKIHHHHHHMAESKIAERAFYQPGASSIEGMPTTLQLFHNHPPIMLRPHWHAQVEVNYVMSGSVHYRMGDHDLTLNAGQMCIFWGGQPHQMDRSSDDSFYAGAHLPLVHFFRMRLPAAISSQLMDGATMVSGETDRADAENFGRWFRYVTSGDPAKAQHAVEELLLRVERMFLEPYSVISSADHGKRKEDDEGMAPSIGVVRMCDFIAANFLDDIDAADIARAASLHPKYAMNLFRKSTGMTLIKYLTLLRLSRAQAMLMTGKDNILQIAMESGFGSVSAFNKAFRQISGMSPSDFRRDMRAAAA
- soluble on expression in E. coli: not soluble

Sequence: AKADSEQGNGEDKGTGTKGDGTGRGEGSGKGSGGVKGEHGEGAGSSKGNPLRANGSIPRPAYPTLSMENDEQGTVVLSVLVSPGGHVESVKIVKSSGFSRLDNAARKAAQNGHFQANAWTEFKVPVKFELN
- soluble on expression in E. coli: soluble

Sequence: MAHHHHHHMSSVSAAPQLSPKVIPGCSNTHSNSGLPTILSDLGTFAYQSACYGPQQLLACSSAVTNAGEVIFVYDMNSMLLTQSLSGHKAAVTALLWRPPPASYLQTGLFLWSGDARGALMYWDVVEGVALTSIQTPCHAAVQSLTLLTDEHLLVVTQEGAGYVFNSHLVDNTPLPPGRLLLETKQSTLLGNISRPSLVACSRLNDQHCCAVVLGDRLRILTAIQLDSGATAPVAKDLIYDSCDGAPTVVDVFFSDAQEEVLYFATRNTVGCYDWKLRLMLNESLLWLPDEVEFRRIFRSCSSGAAARTAASRSQESTASSSGDAAAAQVPLMYSFGSDQRLVAWHVTRHDRFTAVLTDVRGARINAKLCVNVVQSELDSSMFAVLFEDGSIVHWQYSPLARRWKLLDCWLAPVVRPVTFCPVGAHHCCVALESGHLALMDITHSMAVRRLTWSTLAERRLCCCAGTSGATLSGSCRTASNSTATTTKSR
- soluble on expression in E. coli: not soluble

Sequence: GREQMASFESAYVALSRMKQHVQVYTDNREGWIKAIKNSPEKATAHDILEPRNDRAVKTADLLFGRARPLDETAAGRAALQQSGLAQGSSPGKFISPGKKYPQPHVALPAFDKNGKAAGIWLSPLTDRDGRLEAIGGEGRIMGNEDARFVALQNSRNGESLLAGNMGEGVRMARDNPDTGVVVRLAGDDRPWNPGAMTGGRVWAEPAPVAPVPQAGADIILPPEVLAQRAAEEQQRREMEKKAEQTAREMAGEARKAG
- soluble on expression in E. coli: not soluble

Sequence: MGSDKIHHHHHHMDYPQQHIKPYNEDGKKTEQVERMFDNIAHAYDKLNHTLSLGIDRSWRRKAIAWLRPFRPQHIMDVATGTGDFAILACRELNPDELIGTDISEGMMNVGREKVKKEGLSDKISFAREDCTSLSFADNRFDAITVAFGIRNFEDLDKGLSEMCRVLKPGGHLVILELTTPDRFPMKQLFAIYSKVVIPLLGKLLSKDNSAYHYLPDTIKVFPQGEVMKGVISKTGFGEVHFRRLTFGICTLYTATK
- soluble on expression in E. coli: not soluble

Sequence: MSTTVEKIKAIEDEMARTQKNKATSFHLGQLKAKLAKLRRELLTSASSGSGGGAGIGFDVARTGVASVGFVGFPSVGKSTLLSKLTGTESEAAEYEFTTLVTVPGVIRYKGAKIQMLDLPGIIDGAKDGRGRGKQVIAVARTCNLLFIILDVNKPLHHKQIIEKELEGVGIRLNKTPPDILIKKKEKGGISITNTVPLTHLGNDEIRAVMSEYRINSAEIAFRCDATVDDLIDVLEASSRRYMPAIYVLNKIDSLSIEELELLYRIPNAVPISSGQDWNLDELLQVMWDRLNLVRIYTKPKGQIPDFTDPVVLRSDRCSVKDFCNQIHKSLVDDFRNALVYGSSVKHQPQYVGLSHILEDEDVVTILKK
- soluble on expression in E. coli: soluble

Sequence: MDKKIIGIDLGGTTIKFAILTTDGVVQQKWSIETNILEDGKHIVPSIIESIRHRIDLYNMKKEDFVGIGMGTPGSVDIEKGTVVGAYNLNWTTVQPVKEQIESALGIPFALDNDANVAALGERWKGAGENNPDVIFITLGTGVGGGIVAAGKLLHGVAGCAGEVGHVTVDPNGFDCTCGKRGCLETVSSATGVVRVARHLSEEFAGDSELKQAIDDGQDVSSKDVFEFAEKGDHFALMVVDRVCFYLGLATGNLGNTLNPDSVVIGGGVSAAGEFLRSRVEKYFQEFTFPQVRNSTKIKLAELGNEAGVIGAASLALQFSKEK
- soluble on expression in E. coli: soluble

Sequence: MDSRLSDFLARAESVLARLEPLLPAVREAVDWERSLAARWHRDGRSGYLQPLEVSLDLRLADLLGVERQREQLERNTRQFVAGQPANHALLWGARGTGKSSLVRALLAELAGAGLRLIEIERDHLADLPRVVEQLQGLPQRFVLFCDDLSFDAGEGDYRVLKSVLDGSLEQAPENVLLYATSNRRHLVSEKQSDNENWKMVDGELHPNEAVEDKIALSDRFGLWLSFYPFTQEHFLSVVHHWVDVLAEKAGLAWSWSEELEKEAIRWALGRGNRNGRCAYQFSRYWVGKQLLERQA
- soluble on expression in E. coli: not soluble

Sequence: LSDKLMERLKERAEGIFVSGPPGSGKSTFVAALAEFYRSQGKIVKTMESPRDLQVSKEITQYAPLEGDMEKTCDILLLVRPDYTIYDEVRKTRDFEIFADMRMAGVGMVGVVHASKPIDAIQRLIGRVELGVIPQVVDTVIFIKDGKIQKVYEIDFTVKVPYG
- soluble on expression in E. coli: not soluble

Sequence: MICLDCDDLFDTWRLQARWLLSHEIDPSQVSWKSPDAADLFGSEEQYPEQSGPFQARVPLELLQLLQSTSRYRGEQRWSLLYEVLWRVTHGDRTAMMAGDKLGSELHRRLKAVRREAHHLHAFLRFVALPPADNDAAIMRPQYVAWHEPAHDILHSASEHFIGRMGQHRWMIATPQDGVYYDGKQLIHERRCPEAWQTMARQVEDPHGELWLTYYSHIFNPARLNPKVMEGHFPSRFWKNLPE
- soluble on expression in E. coli: not soluble

Sequence: MSLSSLLIDLKGKELEQEEVELLSHPLVAGLILFTRNFENREQIQELIRSVRQRVKKPLLITVDQEGGRVQRFRDGFTMLPSMQAFQETLSATEQVSFAKEAGWQMAAEMIALDIDLSFAPVLDLGHECRAIGDRSFSSDVKSAVNLATAFIDGMHQAGMASTGKHFPGHGHVLADSHLETPYDDRTKEEIFSGDLQPFQQLISQNKLDAIMPAHVIYSQCDSQPASGSKYWLKEILRKKLNFQGTIFSDDLGMKGAGVMGNFVERSKKALNAGCDLLLLCNEREGVIQVLDNLKLTENQPHFMARQARLQSLFKRRVINWNDLISDQRWRLNYQKLADIQSRWLDIQAAKNDEGGSHHHHHH
- soluble on expression in E. coli: soluble

Sequence: SASAVFEGTSLVNMFVRGCWVNGIRRLIVSRRGDEEEFFEIRTEWSDRSVLYLHRSFADLGRLCKRLRDAFPEDRSELARTPLRQGLLAIKGAHDIETRLNEVEKLLETVISMPCKYSRSEVVLTFFERSPLDQVLKNDNVHKIQPSFQSPVKISEAKEGTGALRTGVVDGCEPPGGCWELSVGLLEEHQVFLTAERIFSPRKAFLRNHEVQWILFGKHRDHSH
- soluble on expression in E. coli: soluble

Sequence: MGSDKIHHHHHHMLELKHNFIFEDQPVAWGCMGQGPALVLIHGTPFSSQVWRRIAPLLSSHWTVYYYDMVGYGQSHKSAGQQVSLGGQDRLLAALLKEWKLTRPDILCHDFGGATALRGYFLQGLRYASLTLFDAVAISPWGSPFVAHVRKHQDAFTGLPKYAHDALLSAYLQGAAYQPLSEEALNIYMSPWQGEVGQAAFYRQIAQMDQCYTDDIEPLLTELDCPVNMLWGEQDEWIPLEVGKRLAHRLGDAPLQIVKNAGHLVQEDAPEAIVQSMYSLLLKRAGTSSSR
- soluble on expression in E. coli: not soluble

Sequence: MATLLEQLSTMTVVVADTGDLDAIRKFTPRDATTNPSLILAAAQIPAYQSLIDEALHSSRQLLGNSAAVEEVVHEALDEICVIFGKEILKIVPGRVSTEVDARLSFNTEATIAKAHKLIGLYNDAGITNDRVLIKIASTWEGIKAAEVLEKDGIHCNLTLLFGFSQAVACAEAGVTLISPFVGRILDWYKASTGRDSYAGPEDPGVISVTKIFNYFKTYDYKTEIMGASFRNLDEIIELAGCDLLTISPKLLDQLGSTEAPLKRKLDAVNPVAAESQIHVDKESFESMMRADRMAFEKLDEGIRGFSKAIETLEAQLAHRLAVLEGGAAFCHVVQEIFMLNDLDGDGCITREEWLGSDAVFDALDHDHDGRLLQEDVRSGLGAALALTTA
- soluble on expression in E. coli: not soluble

Sequence: MKDDRQKASVLAVRMIPNVDLAMCKEFSMPEGHRSIGLITSDCDDVTYTALDDATKKADIKVVYAKSFYGGAANANTKLAGEVIGIISGPNPAEVKSGLSAVVDFVENEAAFISANEDDSIAYYAHCISRTGSYLSEVAGIPEGESIAYLIAPPLEAMYALDVALKSANVELVAFYGPPSETNFGGGLLTGSQSACKAACDAFAEAVKAVAANPLGY
- soluble on expression in E. coli: not soluble

Sequence: MPITKIHARQIYDSRGNPTVEVDLFTEKGVFRAAVPSGASTGVHEALELRDGDKAVHLGKGVLKAVSNINEKIAPALIAKGFDVTAQKDIDDFMMALDGSENKGNLGANAILGVSLAVAKAGAVHKGLPLYKYIAELAGTGKVVLPVPAFNVINGGSHAGNKLAMQEFMILPVGASSFAEAMRMGSEVYHHLKAEIKKRYGLDATAVGDEGGFAPNIQDNKEGLDLLNTAIDKAGYTGKISIGMDVAASEFFKDGKYDLDFKNPASDSSKWLSGEQLTELYQSFIKEYPVVSIEDAFDQDDWDNWGKFHGATSIQLVGDDLTVTNPKRIQTAIDKKSCNCLLLKVNQIGSVTESIEAAKLSRANGWGVMVSHRSGETEDTFIADLVVGLATGQIKTGAPCRSERLAKYNQLLRIEEELGADAVYAGHNFRNPQV
- soluble on expression in E. coli: not soluble

Sequence: MAHHHHHHMHTDDKQAQRYPRTSDAARVHSTLRVGQNTSDKVPYGRLSSQSGPGTPRGDLFPPSNGLSKVEGEETPAAGAWQYPSEPMATPNTRSVQLNGALPVKNEEGETKCSGDAIREEGTKDGGDGVIIGIDAAVEAGVLVANEESGKEDENRESNVNSTPCASGTNETIATATPTLSNATAASVVLTPAVPASTGLRASRRLLDFTGSTNVSNGPRAASRLFDVKPVGGGAQAASQGVGFLRLSKTVPSAASQAVSARMRTSRKNGPTLSATSRGHSSTAHENLPCRNDYTSLRLKEQRRRELYAWNEELRRQDKSDMSADAV
- soluble on expression in E. coli: not soluble

Sequence: MSLNELPRPDMMFGLKVVLAATDFSARSDRAVRRAAALARQSGARLVIAHVVDDDQPEHIVAVEVELAESALADAIREHTYLAGLQCTPLVLLGTPFDAIVRAAHQQGADLCVVGSHRRAFLRDIFAGTTAERVIRNSTVPVLMANLDPALPYAKSLAPVDLTDCSAQALETARQLGLLQRTKLIVMHVYDAAAAGMLNYAGVDKTSLDDYLVDTRTDAVRDLVRFLEPLRLDDVDYSTVVKEGAGPATDIIEAATELRPDLVVIGTHARRGAVRLLLSSVTEEVLRRLQRDILVVPVRDAGSEGHHHHHH
- soluble on expression in E. coli: soluble

Sequence: MGHHHHHHSHIAELYGAVLWGETVHLFMEAGEGGSVLEKLESCGPMREFEIIWVTKHVLKGLDFLHSKKVIHHDIKPSNIVFMSTKAVLVDFGLSVQMTEDVYFPKDLRGTEIYMSPEVILCRGHSTKADIYSLGATLIHMQTGTPPWVKRYPRSAYPSYLYIIHKQAPPLEDIADDCSPGMRELIEASLER
- soluble on expression in E. coli: not soluble
